Abundance fitness data for 46 substances are collected here from the Human Domainome abundance scans (Beltran et al. 2025).

± gives the uncertainty stated by the source.

This series is described as follows: abundance fitness (aPCA) (normalised: wild type 0, dead -1); higher = more abundant; growth selection in yeast, the domain comes from the species named. The conditions noted are these: Homo sapiens.
The substance “Lipoamide acyltransferase component of branched-chain alpha-keto acid dehydrogenase complex, mitochondrial L180V, P11182” yielded an abundance fitness of -0.222 ± 0.039.
Next, “Lipoamide acyltransferase component of branched-chain alpha-keto acid dehydrogenase complex, mitochondrial L180W, P11182”: -0.56 ± 0.047.
The same measure for “Lipoamide acyltransferase component of branched-chain alpha-keto acid dehydrogenase complex, mitochondrial L180Y, P11182”: -0.079 ± 0.1; for “Lipoamide acyltransferase component of branched-chain alpha-keto acid dehydrogenase complex, mitochondrial L188A, P11182”: -0.494 ± 0.057.
Next, “Lipoamide acyltransferase component of branched-chain alpha-keto acid dehydrogenase complex, mitochondrial L188C, P11182”: -0.388 ± 0.062; “Lipoamide acyltransferase component of branched-chain alpha-keto acid dehydrogenase complex, mitochondrial L188D, P11182”: -0.535 ± 0.071; “Lipoamide acyltransferase component of branched-chain alpha-keto acid dehydrogenase complex, mitochondrial L188E, P11182”: -0.391 ± 0.048.
“Lipoamide acyltransferase component of branched-chain alpha-keto acid dehydrogenase complex, mitochondrial L188F, P11182”: the abundance fitness worked out at 0.116 ± 0.39.
With “Lipoamide acyltransferase component of branched-chain alpha-keto acid dehydrogenase complex, mitochondrial L188G, P11182”, the abundance fitness is -0.544 ± 0.036.
Next, “Lipoamide acyltransferase component of branched-chain alpha-keto acid dehydrogenase complex, mitochondrial L188H, P11182”: -0.368 ± 0.094.
Next, “Lipoamide acyltransferase component of branched-chain alpha-keto acid dehydrogenase complex, mitochondrial L188K, P11182”: -0.578 ± 0.052; “Lipoamide acyltransferase component of branched-chain alpha-keto acid dehydrogenase complex, mitochondrial L188M, P11182”: -0.248 ± 0.054.
The substance “Lipoamide acyltransferase component of branched-chain alpha-keto acid dehydrogenase complex, mitochondrial L188N, P11182” yielded an abundance fitness of -0.567 ± 0.095.
With “Lipoamide acyltransferase component of branched-chain alpha-keto acid dehydrogenase complex, mitochondrial L188P, P11182”, the abundance fitness is -0.412 ± 0.047.
Next, “Lipoamide acyltransferase component of branched-chain alpha-keto acid dehydrogenase complex, mitochondrial L188R, P11182”: -0.647 ± 0.04.
The same measure for “Lipoamide acyltransferase component of branched-chain alpha-keto acid dehydrogenase complex, mitochondrial L188S, P11182”: -0.656 ± 0.059; for “Lipoamide acyltransferase component of branched-chain alpha-keto acid dehydrogenase complex, mitochondrial L188T, P11182”: -0.519 ± 0.07; for “Lipoamide acyltransferase component of branched-chain alpha-keto acid dehydrogenase complex, mitochondrial L188W, P11182”: -0.513 ± 0.048.
Next, “Lipoamide acyltransferase component of branched-chain alpha-keto acid dehydrogenase complex, mitochondrial L201A, P11182”: -0.315 ± 0.041.
Substance “Lipoamide acyltransferase component of branched-chain alpha-keto acid dehydrogenase complex, mitochondrial L201C, P11182” registered an abundance fitness of -0.243 ± 0.064.
The same measure for “Lipoamide acyltransferase component of branched-chain alpha-keto acid dehydrogenase complex, mitochondrial L201D, P11182”: -0.374 ± 0.14.
Next, “Lipoamide acyltransferase component of branched-chain alpha-keto acid dehydrogenase complex, mitochondrial L201E, P11182”: -0.038 ± 0.042.
With “Lipoamide acyltransferase component of branched-chain alpha-keto acid dehydrogenase complex, mitochondrial L201F, P11182”, the abundance fitness was -0.319 ± 0.09.
Next, “Lipoamide acyltransferase component of branched-chain alpha-keto acid dehydrogenase complex, mitochondrial L201G, P11182”: -0.275 ± 0.034; “Lipoamide acyltransferase component of branched-chain alpha-keto acid dehydrogenase complex, mitochondrial L201H, P11182”: -0.32 ± 0.07.
The substance “Lipoamide acyltransferase component of branched-chain alpha-keto acid dehydrogenase complex, mitochondrial L201K, P11182” yielded an abundance fitness of -0.256 ± 0.056.
The same measure for “Lipoamide acyltransferase component of branched-chain alpha-keto acid dehydrogenase complex, mitochondrial L201M, P11182”: -0.141 ± 0.069; for “Lipoamide acyltransferase component of branched-chain alpha-keto acid dehydrogenase complex, mitochondrial L201N, P11182”: -0.119 ± 0.093.
The same measure for “Lipoamide acyltransferase component of branched-chain alpha-keto acid dehydrogenase complex, mitochondrial L201P, P11182”: -0.602 ± 0.062; for “Lipoamide acyltransferase component of branched-chain alpha-keto acid dehydrogenase complex, mitochondrial L201Q, P11182”: -0.11 ± 0.049; for “Lipoamide acyltransferase component of branched-chain alpha-keto acid dehydrogenase complex, mitochondrial L201R, P11182”: -0.209 ± 0.034.
Turning to “Lipoamide acyltransferase component of branched-chain alpha-keto acid dehydrogenase complex, mitochondrial L201S, P11182”, the abundance fitness was -0.171 ± 0.061.
The same measure for “Lipoamide acyltransferase component of branched-chain alpha-keto acid dehydrogenase complex, mitochondrial L201T, P11182”: 0.035 ± 0.054.
As for “Lipoamide acyltransferase component of branched-chain alpha-keto acid dehydrogenase complex, mitochondrial L201V, P11182”, the abundance fitness was -0.096 ± 0.037.
The same measure for “Lipoamide acyltransferase component of branched-chain alpha-keto acid dehydrogenase complex, mitochondrial L201W, P11182”: -0.683 ± 0.052; for “Lipoamide acyltransferase component of branched-chain alpha-keto acid dehydrogenase complex, mitochondrial L206A, P11182”: -0.08 ± 0.036.
Next, “Lipoamide acyltransferase component of branched-chain alpha-keto acid dehydrogenase complex, mitochondrial L206C, P11182”: -0.555 ± 0.34.
The same measure for “Lipoamide acyltransferase component of branched-chain alpha-keto acid dehydrogenase complex, mitochondrial L206D, P11182”: 0.01 ± 0.065; for “Lipoamide acyltransferase component of branched-chain alpha-keto acid dehydrogenase complex, mitochondrial L206E, P11182”: 0.007 ± 0.06.
Substance “Lipoamide acyltransferase component of branched-chain alpha-keto acid dehydrogenase complex, mitochondrial L206F, P11182” gave an abundance fitness of -0.353 ± 0.36.
Next, “Lipoamide acyltransferase component of branched-chain alpha-keto acid dehydrogenase complex, mitochondrial L206G, P11182”: -0.149 ± 0.033; “Lipoamide acyltransferase component of branched-chain alpha-keto acid dehydrogenase complex, mitochondrial L206K, P11182”: -0.113 ± 0.065.
As for “Lipoamide acyltransferase component of branched-chain alpha-keto acid dehydrogenase complex, mitochondrial L206N, P11182”, the abundance fitness was -0.052 ± 0.066.
The same measure for “Lipoamide acyltransferase component of branched-chain alpha-keto acid dehydrogenase complex, mitochondrial L206P, P11182”: -0.291 ± 0.063; for “Lipoamide acyltransferase component of branched-chain alpha-keto acid dehydrogenase complex, mitochondrial L206Q, P11182”: -0.028 ± 0.051; for “Lipoamide acyltransferase component of branched-chain alpha-keto acid dehydrogenase complex, mitochondrial L206R, P11182”: -0.071 ± 0.035.
